Laboratory results as given in publication PMC4892741, “Two shikimate dehydrogenases, VvSDH3 and VvSDH4, are involved in gallic acid biosynthesis in grapevine” (Journal of Experimental Botany, 2016).

B1: VvSDH3 (Vitis vinifera) (protein)
chain: MGSLPFTVSDLQTSVSGVRSNPTLLCTPLMGTTVEQMLTEMRKAKEIGADIVEIRLDCLRNFSPAQDLQILIKQSPLPTLVTYRPIWEGGQYEGDENKRQDALRLAMELGASYIDVELEVAHEFNNSIYGKKPQNFKVIVSSHNFHNTPSTEAIGNLVARIQASGADIVKIATTALDITDVARVLQVTVHSQVPTIAIVMGERGLISRLLSPKFGGYLTYGALEAGAISAPGQPTAKDLLDLYNFRLVKPDTKVYGIIGKPVGHSKSPLLFNAAFKKVGLNAVYVHLLVDDVEKFFNTYSAPDFISGCSCTIPHKEVAIKCMDTIDPIARKIGAINNIVRKPDGKLTAFNTDYIGAIEAIEDGLRESNGSSPAVGSPLAGKLFVVLGAGGAGKSLAYGAKEKGARVVVANRTFERAKDLADKVGGQALTLAEIENFHPEEGMILANTTSVGMKPKINDTPIPKHALKHYSLVFDAIYTPKDTRLLREAKESGKIIVYGTEMLIRQGFEQYKNFTGLPAPEELFRELMSKHA
notes: E. coli BL21(DE3); GST tag removed after purification
B2: VvSDH4 (Vitis vinifera) (protein)
chain: GARRNSTLICVPIMADSVDQMLGQIRKAKEVGGDLVEIRLDYLKNFSPRQDLQFLVKQSPLPTLVTYRPTWEGGQYDGDEGKRLDALRLAIELGADYIDVELQVAPEFINSIQGKTSGKVKIIVSSHNYQNTPSAEELGNLVARIQATGADIVKIATTALDITDCARIFQVLAHSQVPTIGIAMAERGLISRILSAKFGSYLTFGSLEAGVVSAPGQPTVKDLLDLYNFRQIGPDTKVHGVIGKPIGHSKSPHLYNSAFKSVGFNGIYLPLLVDSVKNFLATYSSPDFVGYSYTIPHKEDGLRCCDEIDPIAQAIGAISCMIRRPADGKLMGYNVDYLGAIAAIEEGLRASNGTTSVGSPLAGKLFVVIGAGGAGKALAYGGKEKGARVVVANRTFEKAKELASKVGGEAMTLAELENFHPEDGMILANTTSVGMKPNIDNTPLSKKALSRYSLVFDAIYTPKLTRLLREAQESGAIIVYGTEMFINQAFVQFERFTGLPAPKELIREVLVRNT
notes: partial cDNA lacking the first 17 aa (putative transit peptide); E. coli BL21(DE3); GST tag removed
B3: VvSDH1 (Vitis vinifera) (protein)
chain: MESGGMSKNSTLICVPIMGETIEKMVVDMSKAKTSGADLVEVRLDTLKRFNPRQDLEVLIRKCPLPTLFTYRPKWEGGQYEGDENSRRDALRLAMELGADYVDIELKVAHEFINSIHGRKPEKFKVIVSSHNYQNTPSVEDLGNLVVSIQATGADIVKIATTALEITDVARIFQITVHSQVPVIGLVMGERGLISRILCPKFSGYLTFGSLEPGIVSAPGQPTIKDLLNLYNFRQLGPDTKVFGVIGKPVSHSKSPHLYNEAFKSVGFNGVYVHLLVDDIAKFFHTYSAADFAGFSCTIPHKEAALKCCDEVSPVAKSIGAVNCIIRRPSDGKLFGYNTDYVGAISAIEDGLRDLHKISSTSGSPLAGKLFVVIGAGGAGKALAYGAKEKGARVVIANRTYARARELADAVGGDALSLADLNNFHPENGMILANTTSIGMQPKVDETPISKHALKYYSLVFDAIYTPKITRLLREAQESGATIVTGLEMFIGQAYEQFERFTGLPAPKELFKQFISNLQ
notes: as for B1

What was measured:
Test in all cases: purified protein
Type in all cases: biochemical, Vitis vinifera
purified protein [1] = substrate: NC(=O)c1ccc[n+]([C@@H]2O[C@H](COP(=O)(O)OP(=O)(O)OC[C@H]3O[C@@H](n4cnc5c(N)ncnc54)[C@H](OP(=O)(O)O)[C@@H]3O)[C@@H](O)[C@H]2O)c1; conditions: 4 mM shikimate, pH 9, 100 mM Bis-Tris Propane HCl, 30 °C
purified protein [2] = substrate: O=C(O)C1=CC(=O)[C@@H](O)[C@H](O)C1; conditions: 0.4 mM NADPH, pH 7, 100 mM Bis-Tris Propane HCl, 30 °C, 3-DHS reduction, pH 7.0
purified protein [3] = substrate: O=C(O)C1=C[C@@H](O)[C@@H](O)[C@H](O)C1; conditions: 2 mM NADP+, pH 9, 100 mM Bis-Tris Propane HCl, 30 °C

Protein	Km (purified protein [1]; pH 9.0, varied: cofactor) [µM]	Vmax (purified protein [1]; pH 9.0, varied: cofactor) [µmol/min/mg]	kcat (purified protein [1]; pH 9.0, varied: cofactor) [s⁻¹]	kcat/Km (purified protein [1]; pH 9.0, varied: cofactor) [M⁻¹ s⁻¹]	Km (purified protein [2]) [µM]	Vmax (purified protein [2]) [µmol/min/mg]	kcat (purified protein [2]) [s⁻¹]	kcat/Km (purified protein [2]) [M⁻¹ s⁻¹]	Km (purified protein [3]; pH 9.0) [µM]	Vmax (purified protein [3]; pH 9.0) [µmol/min/mg]	kcat (purified protein [3]; pH 9.0) [s⁻¹]	kcat/Km (purified protein [3]; pH 9.0) [M⁻¹ s⁻¹]	Km (purified protein [1]; varied: cofactor) [µM]	Vmax (purified protein [1]; varied: cofactor) [µmol/min/mg]	kcat (purified protein [1]; varied: cofactor) [s⁻¹]	kcat/Km (purified protein [1]; varied: cofactor) [M⁻¹ s⁻¹]	Km (purified protein [3]) [µM]	Vmax (purified protein [3]) [µmol/min/mg]	kcat (purified protein [3]) [s⁻¹]	kcat/Km (purified protein [3]) [M⁻¹ s⁻¹]
B1	38.4 ± 11.9	27	26.1 ± 2.68	680000	46.3 ± 18.2	9	8.62 ± 0.93	186000	27.3 ± 10.4	5.4	5.16 ± 0.56	189000								
B2													53.8 ± 5.8	30	28.9 ± 1.06	537000	146.8 ± 60	27.6	26.1 ± 4.97	178000
B3	214.7 ± 56.4	254	239 ± 26.3	1.11e+06	156.9 ± 31.3	102	95.8 ± 10.2	611000	90 ± 16	100	94.5 ± 7.2	1.05e+06								
